The source of these data is PMC3223566.

Assay [1] has as its target M. jannaschii RNA polymerase, wild type, reconstituted from 12 recombinant subunits (M. jannaschii) (UniProt Q58443). The experiment in a line: native gel or EMSA; competition in the PIC: Spt4/5 (0, 16, 32, 137 μM) added to preformed PICs (DNA, TBP, TFB, RNAP) with fluorescently labeled TFE (0.75 μM).
Assay [2] has the same target. Briefly: native gel or EMSA; competition in the TEC: RNAP (0.21 μM), NTS (20 μM), TS (15 μM), RNA (68 μM), TFE^G133*DL549 (0.74 μM), Spt4/5 or Spt4/5^A4R (1, 2.5, 15 μM). On the technique in general: In EMSA bound probe runs differently from free probe, usually more slowly.
For assay [3] the target is unchanged.
For assay [4] the target is unchanged. Briefly: native gel or EMSA; competition: Spt4/5 or Spt4/5^A4R (0.33, 1, 7.5, 25 μM) added to a preformed complex of free RNAP and TFE^133*DL549 (0.74 μM).
For assay [5] the target is unchanged. This is another data set of the same source.
In assay [6] the target is RNAPΔRpo4/7, ten-subunit RNAP subassembly lacking Rpo4/7 (M. jannaschii) (UniProt Q58443).
Assay [7] addresses M. jannaschii RNA polymerase, wild type, reconstituted from 12 recombinant subunits (M. jannaschii) (UniProt Q58443). This is another data set of the same source.

B1: Spt4/5, transcription elongation factor, wild type (complex)
chain 1: MRACLKCKYLTNDEICPICHSPTSENWIGLLIVINPEKSEIAKKAGIDIKGKYALSVKE
chain 2: MIFAVRTMVGQEKNIAGLMASRAEKEQLDVYSILASESLKGYVLVEAETKGDVEELIKGMPRVRGIVPGTIAIEEIEPLLTPKKIIENIEKGDVVEIIAGPFKGERAKVIRVDKHKEEVTLELENAAVPIPITLPVEGVKIVSKHKD
One may read the IC50 as the concentration at which inhibition is half-maximal. Take B1: the IC50 in assay [1] was determined as 29000 nM; in assay [2] it was 790 nM; in assay [4] it was 550 nM. Also, the inhibition of transcript synthesis in promoter-directed transcription, Spt4/5 at 55.2 μM in assay [3] was over 10 fold. For the same molecule, the inhibition of promoter-directed runoff transcription by minimal complexes (DNA, TBP, TFB, RNAP; no TFE) in assay [5] was 9.6 µM.

B2: TFE (archaeal transcription initiation factor E), unlabeled wild type (natural protein)
chain: MLNDPLVQEVLFNIFEGDEKGFEVIDVLLEKGETTEEEIAKELGVKLNVVRKLLYKLYDARLVDYKRWKDEDTNWYSYTWLPTLEKLPYVVKKKINELIKDLEKKLEFEKNNMFFFCPNCNVRFTFEEAMDYGFSCPGCGNMLQEFDNSELIKDLEEQIKFLKEELKNNPFLK
Turning to B2, the stimulation of promoter-directed transcription by TFE (8 μM) in assay [6] is under 1.2 fold. The stimulation of promoter-directed runoff transcription by TFE (0, 0.32, 8 μM) in assay [7] was 5 fold.
